Measured values reported in the supplement of paper PMC10724198.
± gives the standard deviation of the averaged measurements.

Tested on: Saccharomyces cerevisiae
Assay: protein stability index of tFT-peptide fusion (C-terminal peptide) (PSI (0-1 scale)); higher = more stable (slower turnover)
Details: genetic background: wild type; temperature: 30 C
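Note: PSI is a weighted mean of sequencing reads over stability bins, variants kept only with over 10 reads, mCherry proximal and sfGFP distal, peptide attached via GGGS linker.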

Sequence	protein stability index
PPASPPAPPTFG	0.645 ± 0.021
PPATPTNPPVSP	0.687 ± 0.027
PPATTPICSTPS	0.681 ± 0.017
PPAVPSTPLSPP	0.685 ± 0.032
PPCTVHPLPRLP	0.727 ± 0.02
PPDLSWPPAPLP	0.824 ± 0.021
PPDPRLPRHDRP	0.755 ± 0.018
PPEPRPLPDAPP	0.5977 ± 0.0052
PPFDSAHPTPAP	0.739 ± 0.019
PPFLLPCFPCFS	0.494 ± 0.07
PPFLPPSPPAPP	0.691 ± 0.031
PPFPPHPPPSSA	0.6873 ± 0.0052
PPFPPPPPPSPS	0.751 ± 0.07
PPFPPPSPPHAL	0.751 ± 0.1
PPFPPRPLPPIP	0.693 ± 0.017
PPFSLVTGLPCP	0.71 ± 0.048
PPFVPFLLIFPP	0.611 ± 0.042
PPGGSRTEGRRT	0.688 ± 0.049
PPGPPPPLPISP	0.7244 ± 0.0044
PPGPRPTPPPPI	0.641 ± 0.045
PPGPTSSPTKTH	0.729 ± 0.056
PPGSPGPRTPPP	0.708 ± 0.024
PPHAAPPHICWQ	0.727 ± 0.049

Sequence	protein stability index
PPHCSSPTPARH	0.694 ± 0.028
PPHHPPPASRSQ	0.653 ± 0.068
PPHLPPPPPVPA	0.5751 ± 0.0052
PPHPKPPPAPPP	0.527 ± 0.041
PPHPLPPPSPPF	0.682 ± 0.034
PPHPPRPSVSSS	0.687 ± 0.0097
PPHPRTPPATPP	0.601 ± 0.12
PPHPSPPHPSSA	0.752 ± 0.01
PPHSIPSPSHPR	0.714 ± 0.052
PPHSPETVPARP	0.688 ± 0.046
PPHTALLPPAPA	0.583 ± 0.019
PPHTRTACHRAP	0.7251 ± 0.0034
PPLAAFLPFLAL	0.694 ± 0.0011
PPLAPPHPCPPP	0.698 ± 0.018
PPLASFPPPPPL	0.667 ± 0.064
PPLASPDPPLPL	0.66 ± 0.083
PPLGPARNYPSL	0.673 ± 0.018
PPLLHPLPPPLP	0.659 ± 0.014
PPLLPPPLTPPD	0.628 ± 0.051
PPLLPPTPPLSA	0.625 ± 0.018
PPLLPRPPPLSP	0.6677 ± 0.0037
PPLPCATLPSHS	0.706 ± 0.013
PPLPFSSSRFPS	0.666 ± 0.02

Sequence	protein stability index
PPLPLPTLPCRP	0.644 ± 0.035
PPLPLTAPHLCH	0.705 ± 0.03
PPLPPPPHPPFP	0.683 ± 0.07
PPLPPPPPPVPA	0.681 ± 0.036
PPLPPRSPSAPL	0.695 ± 0.034
PPLPPSSMPPSH	0.685 ± 0.035
PPLPPVPSPPPP	0.654 ± 0.025
PPLPSLLGLLFP	0.6773 ± 0.0044
PPLPSSPPSSPL	0.68 ± 0.013
PPLRPPPPLPVP	0.663 ± 0.054
PPLSCFPLSTRL	0.683 ± 0.002
PPLSFDTSRVAP	0.677 ± 0.049
PPLSHPRPILAP	0.5683 ± 0.0025
PPLSPLAPPSHP	0.727 ± 0.069
PPLSPRLLWSPV	0.711 ± 0.0044
PPLVPPPLRASP	0.684 ± 0.037
PPLYFFSPMAFF	0.783 ± 0.032
PPMSYYLFPCSR	0.699 ± 0.061
PPPAFRLPLPPP	0.727 ± 0.072
PPPALTHLLPLP	0.678 ± 0.058
PPPAPLSPLSPR	0.6777 ± 0.0016
PPPAPPSPPPPP	0.65 ± 0.054
PPPAPPVRPDRS	0.686 ± 0.048

Sequence	protein stability index
PPPASPLPPASP	0.667 ± 0.031
PPPASPSPSMVF	0.693 ± 0.024
PPPASRTPSNLP	0.732 ± 0.046
PPPDPPLSPPPP	0.676 ± 0.087
PPPDYPPTPAPS	0.715 ± 0.054
PPPEVDLRPCHC	0.688 ± 0.055
PPPFCPCNRLNG	0.702 ± 0.0078
PPPFSPPSDLPL	0.601 ± 0.041
PPPGPPPPPPYP	0.656 ± 0.12
PPPGPPSAPPPH	0.706 ± 0.047
PPPGPRPPSRSN	0.581 ± 0.022
PPPHAARSLFSL	0.733 ± 0.098
PPPHATPAPSPL	0.706 ± 0.045
PPPHPGFHLSSP	0.673 ± 0.088
PPPHPKPPPAGH	0.62 ± 0.069
PPPHPPTPLPPT	0.701 ± 0.018
PPPHSPSPTPHW	0.713 ± 0.016
PPPHSSPPPSPP	0.693 ± 0.069
PPPHTPLPPLAP	0.744 ± 0.05
PPPLGPPPPSSL	0.774 ± 0.072
PPPLLCPSSAPP	0.783 ± 0.087
PPPLPALRPPSH	0.7193 ± 0.0013
PPPLPLVPPSPP	0.651 ± 0.033

Sequence	protein stability index
PPPLPPAPPPFP	0.698 ± 0.017
PPPLPPFPPAPP	0.642 ± 0.012
PPPLPPPCSAPP	0.736 ± 0.012
PPPLPPPSLVSF	0.6741 ± 0.0051
PPPLPPSIPLPL	0.743 ± 0.031
PPPLSPPPPPRP	0.6643 ± 0.0031
PPPLSVPVPPLS	0.68 ± 0.021
PPPPAPPAPPLR	0.732 ± 0.056
PPPPAQGRRRPV	0.703 ± 0.023
PPPPIRRPASHL	0.76 ± 0.058
PPPPLAPLPPAS	0.608 ± 0.12
PPPPLAVSPTSP	0.716 ± 0.039
PPPPLPFSPPDP	0.681 ± 0.044
PPPPLPHPPAAS	0.7 ± 0.02
PPPPLPPLTPLS	0.6512 ± 0.0037
PPPPLPPPTLPT	0.726 ± 0.11
PPPPLSPPPPRP	0.693 ± 0.05
PPPPLSTVPPPP	0.811 ± 0.019
PPPPPAIPRRRT	0.678 ± 0.033
PPPPPAPTTSVP	0.6829 ± 0.002
PPPPPHAEAVSR	0.59 ± 0.029
PPPPPLHPPPPL	0.605 ± 0.056
PPPPPLLAPSPL	0.671 ± 0.07

Sequence	protein stability index
PPPPPLLPSPSP	0.696 ± 0.05
PPPPPLPPPPPT	0.696 ± 0.087
PPPPPLRPPRSP	0.767 ± 0.013
PPPPPPASPPSP	0.71 ± 0.015
PPPPPPLPLPLS	0.711 ± 0.084
PPPPPPLTPTFP	0.6601 ± 0.0036
PPPPPPNAPPSS	0.647 ± 0.03
PPPPPPPLTSLP	0.7175 ± 0.0013
PPPPPPPPHPPP	0.559 ± 0.0068
PPPPPPPPHSPP	0.672 ± 0.035
PPPPPPPRPSFP	0.696 ± 0.041
PPPPPPSLPLPP	0.6709 ± 0.0044
PPPPPRPPYPIP	0.735 ± 0.011
PPPPPSAPAPLH	0.6963 ± 0.0021
PPPPPSPAPGIP	0.66 ± 0.055
PPPPPSSFPFPP	0.656 ± 0.049
PPPPPTFPPPRS	0.817 ± 0.025
PPPPPTPLPSTL	0.727 ± 0.038
PPPPPTPPSSTP	0.713 ± 0.068
PPPPPTPTPPYR	0.6952 ± 0.0014
PPPPRLPARLAP	0.77 ± 0.16
PPPPRPPFPRAF	0.698 ± 0.0051
PPPPRPPPLPTR	0.703 ± 0.021

Sequence	protein stability index
PPPPRPPRPPPA	0.671 ± 0.12
PPPPSLPPPPRS	0.693 ± 0.035
PPPPSSLPPPPC	0.691 ± 0.012
PPPPSSPFPHAS	0.697 ± 0.03
PPPPSSPPHLPF	0.651 ± 0.018
PPPPVPLPPPRL	0.713 ± 0.021
PPPPVPPPPSPL	0.6974 ± 0.0036
PPPPYARHTALI	0.691 ± 0.032
PPPQSPPLLLVL	0.548 ± 0.021
PPPRFRLSSFPT	0.701 ± 0.021
PPPRPGFCLFLP	0.674 ± 0.05
PPPRPRYLHPPS	0.719 ± 0.035
PPPRRPPPRLLS	0.705 ± 0.11
PPPSAPLPPLPL	0.714 ± 0.019
PPPSHLGSLDPL	0.661 ± 0.02
PPPSPPLPPHSP	0.7619 ± 0.0011
PPPSPPRPLLPV	0.701 ± 0.023
PPPSSELTFLHY	0.797 ± 0.067
PPPTPLLLSHLL	0.709 ± 0.068
PPPTPPRPPSPP	0.656 ± 0.015
PPPTPTPPSQPT	0.681 ± 0.012
PPPVPPPPAHTP	0.681 ± 0.091
